Positions count from the first letter of the chain named.
B1: DLLBII56A09 (VHH)
VHH: EVQLVESGGGLVQPGGSLRLSCAASGFTFDDYAIGWFRQAPGKEPEGISCISSSGGITYYADSVKGRFTTSRDNAKNTVYLQMNSLKPEDTAVYYCATPGIAACRGIHYTGQGTQVTVSS
notes: also called 56A9; DLLBII56A9
B2: DLLBII115A05 (VHH)
VHH: EVQLVESGGGLVQPGGSLRLSCAASGFTFGSYDMSWVRRSPGKGPEWVSSINSGGGSTYYADFVKGRFTISRDNAKNTLYLQMNSLKPEDTAVYYCAADRYIRARQGDYWGAYEYDYWGQGTQVTVSS
notes: also called 115A5; DLLBII115A5
B3: DLLBII101G08 (VHH)
VHH: EVQLVESGGGLVQAGGSLRLSCAASGRTFSSYAMAWFRQAPGKEREFVAAIRWSGGTAYYADSVQGRFTISRDNAKNTVYLQMNSLKPEDTAVYYCANRAADTRLGPYEYDYWGQGTQVTVSS
notes: also called 101G8; DLLBII101G8
B4: DLLBII101G08 (VHH, not shown: small tags and cut ends)
VHH: B3 VHH
notes: parent VHH; also called 101G08 (wt); 101G8
B5: DLLBII129D08 (VHH, not shown: small tags and cut ends)
VHH: B3 VHH with F37Y, F47Y, A101P, G106E, E109L
B6: DLLBII129E11 (VHH, not shown: small tags and cut ends)
VHH: B3 VHH with F37Y, F47Y, A101P, G106R, E109L
B7: DLLBII129B05 (VHH, not shown: small tags and cut ends)
VHH: B3 VHH with F37Y, F47Y, A101P, G106A, Y112H
B8: DLLBII015 (VHH, not shown: small tags and cut ends)
VHH: B2 VHH with F29I, S50A, F63Y, R103W, D108E, E114A
B9: DLLBII133A09 (VHH, not shown: small tags and cut ends)
VHH: B2 VHH with S50A, F63Y, R103W, D108E, E114A
B10: DLLBII133G05 (VHH, not shown: small tags and cut ends)
VHH: B2 VHH with S50A, A61T, F63Y, R103W, D108E, E114A
B11: DLLBII136C07 (VHH, not shown: small tags and cut ends)
VHH: B2 VHH with F63Y, R103W, D108E

molecular target: T1, human Jagged-1 (human, UniProt P78504 34-1067, limits assumed); assay: binding ELISA on coated recombinant human Jagged-1, OD 405 nm
T1 construct: also called hJagged-1; hJAG1
Outline: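 Plates coated overnight at 4° C with 1 μg/mL ligand, blocked with 1% casein in PBS. VHH dilution series applied; bound VHH detected via mouse anti-myc then anti-mouse-AP conjugate.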

Binder | binding result
B1 | no binding (tested: 5e-7 M)
B2 | no binding (tested: 5e-7 M)
B3 | no binding (tested: 5e-7 M)

molecular target: T2, mouse DLL4 overexpressed on cells (mouse, UniProt Q9JI71 27-686); assay: competitive FMAT, hNotch1-Fc on CHO-mDLL4
T2 construct: whole, on cells; also called CHO-mDLL4; CHO-mDII4
T2 sequence (Q9JI71 27-686): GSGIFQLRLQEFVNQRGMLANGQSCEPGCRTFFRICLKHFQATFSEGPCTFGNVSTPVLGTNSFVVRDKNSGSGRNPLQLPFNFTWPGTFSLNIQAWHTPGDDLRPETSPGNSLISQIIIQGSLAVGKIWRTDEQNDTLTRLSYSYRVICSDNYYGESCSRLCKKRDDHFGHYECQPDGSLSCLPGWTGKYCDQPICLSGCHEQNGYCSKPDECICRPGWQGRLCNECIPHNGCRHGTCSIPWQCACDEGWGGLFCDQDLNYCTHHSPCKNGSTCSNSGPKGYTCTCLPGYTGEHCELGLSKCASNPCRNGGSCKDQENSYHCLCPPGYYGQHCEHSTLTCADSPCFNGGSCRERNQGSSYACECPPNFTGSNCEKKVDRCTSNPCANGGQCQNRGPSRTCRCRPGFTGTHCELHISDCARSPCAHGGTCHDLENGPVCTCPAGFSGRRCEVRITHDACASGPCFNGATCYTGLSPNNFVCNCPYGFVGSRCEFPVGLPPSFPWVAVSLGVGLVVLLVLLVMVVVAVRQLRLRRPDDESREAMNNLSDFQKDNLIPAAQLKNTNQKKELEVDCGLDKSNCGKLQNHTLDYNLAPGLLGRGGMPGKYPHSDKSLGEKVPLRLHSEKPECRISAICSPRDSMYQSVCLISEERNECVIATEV

Binder | IC50 [nM]
B1 | 15
B2 | 43
B3 | 92.1

molecular target: T3, human Jagged-1 (Alexis) (human, UniProt P78504 34-1067, limits assumed); assay: binding ELISA on coated human Jagged-1 (Example 5.8, Example 7), OD 405 nm
T3 construct: also called hJag-1; hJAG1

Binder | binding result
B4 | no binding (tested: log[M] -6.1 (about 8e-7 M))
B5 | no binding (tested: log[M] -6.1 (about 8e-7 M))
B6 | no binding (tested: log[M] -6.1 (about 8e-7 M))
B7 | no binding (tested: log[M] -6.1 (about 8e-7 M))

molecular target: T4, recombinant human DLL4 (human, UniProt Q9NR61 25-522); assay: cell-based or functional assay

Binder | IC50 (nM) (experiment 1), DLL4 proliferation assay (HUVEC) | IC50 (nM) (experiment 2), DLL4 proliferation assay (HUVEC)
B1 | 11 | 6.8
B2 | 10000 | –
B3 | 401 | 112

molecular target: T4, recombinant human DLL4; assay: SPR Biacore T100, hDLL4 on chip, VHH/Fab injected

Binder | Kd [nM] | koff [s⁻¹] | kon [M⁻¹ s⁻¹]
B1 | 5.6 | 0.00093 | 170000
B2 | 25 | 0.0039 | 150000
B3 | 52 | 0.0022 | 43000

molecular target: T5, recombinant mouse DLL4 (C-terminally His-tagged extracellular domain, R&D Systems) (mouse, UniProt Q9JI71 27-532); assay: ProteOn off-rate screen, periplasmic extract, coated mouse DLL4
T5 construct: extracellular domain; also called rmDLL4; mDLL4
T5 sequence (Q9JI71 27-532): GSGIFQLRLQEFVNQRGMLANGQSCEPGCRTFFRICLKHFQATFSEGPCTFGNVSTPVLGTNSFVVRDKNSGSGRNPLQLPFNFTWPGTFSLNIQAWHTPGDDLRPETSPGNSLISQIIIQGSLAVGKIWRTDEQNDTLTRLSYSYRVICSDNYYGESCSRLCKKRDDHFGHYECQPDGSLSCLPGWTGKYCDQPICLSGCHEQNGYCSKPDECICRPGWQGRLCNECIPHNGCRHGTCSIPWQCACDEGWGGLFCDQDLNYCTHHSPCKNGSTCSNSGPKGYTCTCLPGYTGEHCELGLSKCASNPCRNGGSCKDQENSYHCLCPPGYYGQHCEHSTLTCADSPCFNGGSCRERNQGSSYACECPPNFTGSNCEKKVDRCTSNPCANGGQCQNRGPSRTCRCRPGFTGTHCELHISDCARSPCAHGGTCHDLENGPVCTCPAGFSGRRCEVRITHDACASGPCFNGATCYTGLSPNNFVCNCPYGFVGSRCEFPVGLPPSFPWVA
Method: In a first cycle, amino acid substitutions are introduced randomly in both framework (FW) and complementary determining regions (CDR) using the error-prone PCR method. […] After a polish step, PCR products are inserted via unique restriction sites into a vector designed to facilitate phage display of the VHH library. Consecutive rounds of in-solution selections are performed using decreasing concentrations of biotinylated recombinant human DLL4 (biot-rhDLL4) and trypsin elutions. Affinity-driven selections in a third round using cold rhDLL4 (at least 100× excess over biot-rhDLL4) are also performed. No selections on murine DLL4 are included as (conservation of) cross-reactivity is assessed at the screening level. Individual mutants are produced as recombinant protein using an expression vector derived from pUC119, which contains the LacZ promoter, a resistance gene for ampicillin, a multiple cloning site and an ompA leader sequence (pAX50). E. coliTG1 cells are transformed with the expression vector library and plated on agar plates (LB+Amp+2% glucose). Single colonies are picked from the agar plates and grown in 1 mL 96-deep-well plates. VHH expression is induced by adding IPTG (1 mM). Periplasmic extracts (in a volume of ˜80 uL) are prepared according to standard methods and screened for binding to recombinant human and mouse DII4 in a ProteOn (BioRad, Hercules, Calif., USA) off-rate assay. In brief, a GLC ProteOn Sensor chip is coated with recombinant human DII4 on the “ligand channels” L2 and L4 (with L1/L3 as reference channel), while “ligand channels” […] is coated with mouse DII4. Periplasmic extract of affinity-matured clones is diluted 1/10 and injected across the “analyte channels” A1-A6. An average off-rate is calculated of the wild type clones present in the plate and served as a reference to calculate off-rate improvements.

Binder | fold (off-rate vs DLLBII101G08) [fold] | koff [s⁻¹]
B4 | 1 | 0.0067
B5 | 35 | 0.00019
B6 | 26 | 0.00025
B7 | 20 | 0.00034

molecular target: T6, human DLL4 overexpressed on cells (human, UniProt Q9NR61 27-685); assay: FACS titration on HEK293-hDLL4 cells, MCF
T6 construct: full length human DLL4 on CHO or HEK293 cells; also called CHO-hDLL4; CHO-hDII4
Outline: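 HEK293 cells overexpressing DLL4 (transient or stable) were incubated with VHH titrations for 30 min on ice. After washing, binding was detected with anti-c-myc-Alexa647 by flow cytometry, and the mean MCF was used to calculate EC50.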

Binder | EC50 (read off the curve) [nM]
B1 | ~4
B2 | ~20
B3 | ~30

molecular target: T7, recombinant human DLL4 (C-terminally His-tagged extracellular domain, R&D Systems) (human, UniProt Q9NR61 25-522, biotinylated in the competition ELISA); assay: binding ELISA on coated recombinant human DLL4 (Example 5.8, Example 7), OD 450 nm
T7 construct: also called rhDLL4; hDLL4

Binder | EC50 (read off the curve) [pM]
B8 | ~600
B9 | ~600
B10 | ~400
B11 | ~600

molecular target: T8, recombinant mouse DLL4 (mouse, UniProt Q9JI71 27-532); assay: binding ELISA, coated rmDLL4
T8 construct: extracellular domain; also called rmDLL4; mDLL4
T8 sequence (Q9JI71 27-532): as above
Method: In order to determine cross-reactivity to mouse DII4 a binding ELISA is performed. […] Wells are blocked with a casein solution (1% in PBS). VHHs are applied as dilution series and binding is detected using a mouse anti-myc (Roche) and an anti-mouse-AP conjugate (Sigma, St Louis, Mo., USA) (FIG. 7 A-H). As reference, binding to human DII4 is measured.

Binder | EC50 [nM]
B1 | 6.3
B2 | 33.4
B3 | 53.9

molecular target: T6, human DLL4 overexpressed on cells; assay: cell-based or functional assay

Binder | IC50, DLL4/Notch1 reporter assay [nM]
B1 | 540
B2 | 1740
B3 | 2760

molecular target: T5, recombinant mouse DLL4 (C-terminally …); assay: binding ELISA on coated recombinant mouse DLL4 (Example 5.8, Example 7), OD 450 nm

Binder | EC50 (read off the curve) [nM]
B8 | ~1
B9 | ~1
B10 | ~0.4
B11 | ~1

Source: patent publication US20140120095A1 (Boehringer Ingelheim, published 2014)
